T1: EB2 protein (endogenous target of CDKL5 in mouse brain), Q8R001
T1 chain: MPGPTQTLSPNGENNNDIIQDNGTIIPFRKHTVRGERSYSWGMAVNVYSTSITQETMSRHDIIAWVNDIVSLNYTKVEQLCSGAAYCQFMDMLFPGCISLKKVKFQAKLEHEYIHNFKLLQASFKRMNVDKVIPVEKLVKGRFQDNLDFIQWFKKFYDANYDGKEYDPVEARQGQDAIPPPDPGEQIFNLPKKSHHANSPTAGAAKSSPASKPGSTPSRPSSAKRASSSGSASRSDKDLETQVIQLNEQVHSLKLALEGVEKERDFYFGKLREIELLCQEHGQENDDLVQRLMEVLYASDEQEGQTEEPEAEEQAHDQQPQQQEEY

B1: human CDKL5, isoform 3 (protein)
chain: MKIPNIGNVMNKFEILGVVGEGAYGVVLKCRHKETHEIVAIKKFKDSEENEEVKETTLRELKMLRTLKQENIVELKEAFRRRGKLYLVFEYVEKNMLELLEEMPNGVPPEKVKSYIYQLIKAIHWCHKNDIVHRDIKPENLLISHNDVLKLCDFGFARNLSEGNNANYTEYVATRWYRSPELLLGAPYGKSVDMWSVGCILGELSDGQPLFPGESEIDQLFTIQKVLGPLPSEQMKLFYSNPRFHGLRFPAVNHPQSLERRYLGILNSVLLDLMKNLLKLDPADRYLTEQCLNHPTFQTQRLLDRSPSRNQAGKSTALQSHHRSNSKDIQNLSVGLPRADEGLPANESFLNGNLAGASLSPLHTKTYQASSQPGSTSKDLTNNNIPHLLSPKEAKSKTEFDFNIDPKPSEGPGTKYLKSNSRSQQNRHSFMESSQSKAGTLQPNEKQSRHSYIDTIPQSSRSPSYRTKAKSHGALSDSKSVSNLSEARAQIAEPSTSRYFPSSCLDLNSPTSPTPTRHSDTRTLLSPSGRNNRNEGTLDSRRTTTRHSKTMEELKLPEHMDSSHSHSLSAPHESFSYGLGYTSPFSSQQRPHRHSMYVTRDKVRAKGLDGSLSIGQGMAARANSLQLLSPQPGEQLPPEMTVARSSVKETSREGTSSFHTRQKSEGGVYHDPHSDDGTAPKENRHLYNDPVPRRVGSFYRVPSPRPDNSFHENNVSTRVSSLPSESSSGTNHSKRQPAFDPWKSPENISHSEQLKEKEKQGFFRSMKKKKKKSQTVPNSDSPDLLTLQKSIHSASTPSSRPKEWRPEKISDLQTQSQPLKSLRKLLHLSSASNHPASSDPRFQPLTAQQTKNSFSEIRIHPLSQASGGSSNIRQEPAPKGRPALQLPGQMDPGWHVSSVTRSATEGPSYSEQLGAKSGPNGHPYNRTNRSRMPNLNDLKETAL
B2: human CDKL5, isoform 4 (protein)
chain: MKIPNIGNVMNKFEILGVVGEGAYGVVLKCRHKETHEIVAIKKFKDSEENEEVKETTLRELKMLRTLKQENIVELKEAFRRRGKLYLVFEYVEKNMLELLEEMPNGVPPEKVKSYIYQLIKAIHWCHKNDIVHRDIKPENLLISHNDVLKLCDFGFARNLSEGNNANYTEYVATRWYRSPELLLGAPYGKSVDMWSVGCILGELSDGQPLFPGESEIDQLFTIQKVLGPLPSEQMKLFYSNPRFHGLRFPAVNHPQSLERRYLGILNSVLLDLMKNLLKLDPADRYLTEQCLNHPTFQTQRLLDRSPSRNQAGKSTALQSHHRSNSKDIQNLSVGLPRADEGLPANESFLNGNLAGASLSPLHTKTYQASSQPGSTSKDLTNNNIPHLLSPKEAKSKTEFDFNIDPKPSEGPGTKYLKSNSRSQQNRHSFMESSQSKAGTLQPNEKQSRHSYIDTIPQSSRSPSYRTKAKSHGALSDSKSVSNLSEARAQIAEPSTSRYFPSSCLDLNSPTSPTPTRHSDTRTLLSPSGRNNRNEGTLDSRRTTTRHSKTMEELKLPEHMDSSHSHSLSAPHESFSYGLGYTSPFSSQQRPHRHSMYVTRDKVRAKGLDGSLSIGQGMAARANSLQLLSPQPGEQLPPEMTVARSSVKETSREGTSSFHTRQKSEGGVYHDPHSDDGTAPKENRHLYNDPVPRRVGSFYRVPSPRPDNSFHENNVSTRVSSLPSESSSGTNHSKRQPAFDPWKSPENISHSEQLKEKEKQGFFRSMKKKKKKSQTTDSTNGENPSIKKSLFPLFNSKNHLKHSSSLKKLPVVTPPMVPNSDSPDLLTLQKSIHSASTPSSRPKEWRPEKISDLQTQSQPLKSLRKLLHLSSASNHPASSDPRFQPLTAQQTKNSFSEIRIHPLSQASGGSSNIRQEPAPKGRPALQLPGQMDPGWHVSSVTRSATEGPSYSEQLGAKSGPNGHPYNRTNRSRMPNLNDLKETAL
B3: human CDKL5, isoform 1 (protein)
chain: MKIPNIGNVMNKFEILGVVGEGAYGVVLKCRHKETHEIVAIKKFKDSEENEEVKETTLRELKMLRTLKQENIVELKEAFRRRGKLYLVFEYVEKNMLELLEEMPNGVPPEKVKSYIYQLIKAIHWCHKNDIVHRDIKPENLLISHNDVLKLCDFGFARNLSEGNNANYTEYVATRWYRSPELLLGAPYGKSVDMWSVGCILGELSDGQPLFPGESEIDQLFTIQKVLGPLPSEQMKLFYSNPRFHGLRFPAVNHPQSLERRYLGILNSVLLDLMKNLLKLDPADRYLTEQCLNHPTFQTQRLLDRSPSRSAKRKPYHVESSTLSNRNQAGKSTALQSHHRSNSKDIQNLSVGLPRADEGLPANESFLNGNLAGASLSPLHTKTYQASSQPGSTSKDLTNNNIPHLLSPKEAKSKTEFDFNIDPKPSEGPGTKYLKSNSRSQQNRHSFMESSQSKAGTLQPNEKQSRHSYIDTIPQSSRSPSYRTKAKSHGALSDSKSVSNLSEARAQIAEPSTSRYFPSSCLDLNSPTSPTPTRHSDTRTLLSPSGRNNRNEGTLDSRRTTTRHSKTMEELKLPEHMDSSHSHSLSAPHESFSYGLGYTSPFSSQQRPHRHSMYVTRDKVRAKGLDGSLSIGQGMAARANSLQLLSPQPGEQLPPEMTVARSSVKETSREGTSSFHTRQKSEGGVYHDPHSDDGTAPKENRHLYNDPVPRRVGSFYRVPSPRPDNSFHENNVSTRVSSLPSESSSGTNHSKRQPAFDPWKSPENISHSEQLKEKEKQGFFRSMKKKKKKSQTVPNSDSPDLLTLQKSIHSASTPSSRPKEWRPEKISDLQTQSQPLKSLRKLLHLSSASNHPASSDPRFQPLTAQQTKNSFSEIRIHPLSQASGGSSNIRQEPAPKGRPALQLPGQMDPGWHVSSVTRSATEGPSYSEQLGAKSGPNGHPYNRTNRSRMPNLNDLKETAL
B4: human CDKL5, isoform 2 (protein)
chain: MKIPNIGNVMNKFEILGVVGEGAYGVVLKCRHKETHEIVAIKKFKDSEENEEVKETTLRELKMLRTLKQENIVELKEAFRRRGKLYLVFEYVEKNMLELLEEMPNGVPPEKVKSYIYQLIKAIHWCHKNDIVHRDIKPENLLISHNDVLKLCDFGFARNLSEGNNANYTEYVATRWYRSPELLLGAPYGKSVDMWSVGCILGELSDGQPLFPGESEIDQLFTIQKVLGPLPSEQMKLFYSNPRFHGLRFPAVNHPQSLERRYLGILNSVLLDLMKNLLKLDPADRYLTEQCLNHPTFQTQRLLDRSPSRSAKRKPYHVESSTLSNRNQAGKSTALQSHHRSNSKDIQNLSVGLPRADEGLPANESFLNGNLAGASLSPLHTKTYQASSQPGSTSKDLTNNNIPHLLSPKEAKSKTEFDFNIDPKPSEGPGTKYLKSNSRSQQNRHSFMESSQSKAGTLQPNEKQSRHSYIDTIPQSSRSPSYRTKAKSHGALSDSKSVSNLSEARAQIAEPSTSRYFPSSCLDLNSPTSPTPTRHSDTRTLLSPSGRNNRNEGTLDSRRTTTRHSKTMEELKLPEHMDSSHSHSLSAPHESFSYGLGYTSPFSSQQRPHRHSMYVTRDKVRAKGLDGSLSIGQGMAARANSLQLLSPQPGEQLPPEMTVARSSVKETSREGTSSFHTRQKSEGGVYHDPHSDDGTAPKENRHLYNDPVPRRVGSFYRVPSPRPDNSFHENNVSTRVSSLPSESSSGTNHSKRQPAFDPWKSPENISHSEQLKEKEKQGFFRSMKKKKKKSQTTDSTNGENPSIKKSLFPLFNSKNHLKHSSSLKKLPVVTPPMVPNSDSPDLLTLQKSIHSASTPSSRPKEWRPEKISDLQTQSQPLKSLRKLLHLSSASNHPASSDPRFQPLTAQQTKNSFSEIRIHPLSQASGGSSNIRQEPAPKGRPALQLPGQMDPGWHVSSVTRSATEGPSYSEQLGAKSGPNGHPYNRTNRSRMPNLNDLKETAL

Biological target: T1, EB2 protein (endogenous target of CDKL5 …)

Protein | EB2 phosphorylation levels (Western blot, Cdkl5-ko mouse brain) | ability to phosphorylate EB2 (mouse brain) | EB2 phosphorylation (Cdkl5(D471fs) mouse brain, 3 months after AAV) | EB2 phosphorylation (Cdkl5(R59X) mouse brain, 3 months after AAV) | kinase activity, blotting for phosphorylated EB2 (Cdkl5-ko mouse brain, 3 months after AAV) | phosphorylation of EB2 (Western blot of mouse brain, pS222EB2)
B1 | by isoforms three or 4 slightly lower compared to isoform 1 | All tested plasmids expressed well in mouse brain, showing minor differences in ability to phosphorylate EB2 (measurement of CDKL5 kinase activity) |  |  |  | 
B2 | by isoforms three or 4 slightly lower compared to isoform 1 | All tested plasmids expressed well in mouse brain, showing minor differences in ability to phosphorylate EB2 (measurement of CDKL5 kinase activity) |  |  |  | 
B3 |  | All tested plasmids expressed well in mouse brain, showing minor differences in ability to phosphorylate EB2 (measurement of CDKL5 kinase activity) | showed robust hCDKL5 protein expression and EB2 phosphorylation 3 months later | showed robust hCDKL5 protein expression and EB2 phosphorylation 3 months later | human CDKL5 showed robust kinase activity when blotting for phosphorylated EB2 protein | CDKL5 was fully active, as determined by its ability to phosphorylate its endogenous target EB2 protein
B4 | EB2 phosphorylation levels generated by isoform 2 were slightly higher | All tested plasmids expressed well in mouse brain, showing minor differences in ability to phosphorylate EB2 (measurement of CDKL5 kinase activity) |  |  |  | 
